Laboratory results published in publication PMC3098377, “CpG Islands Recruit a Histone H3 Lysine 36 Demethylase”.

Assays:
[1] = test system: KDM2A 1-747 (human); experiment: SPR; conditions: EMSA: 4% Ficoll 400, 20 mM Hepes pH 7.9, 150 mM KCl, 1 mM EDTA, 0.5 mM DTT, 25 ng/ul poly-dAdT, room temperature, 0.8% agarose gel 0.5x TBE 4 C; SPR: 10 mM …
[2] = target: T1, KDM2A ZF-CxxC domain (human, UniProt Q9Y2K7 544-648); experiment: EMSA; EMSA: 4% Ficoll 400, 20 mM Hepes pH 7.9, 150 mM KCl, 1 mM EDTA, 0.5 mM DTT, 25 ng/ul poly-dAdT, room temperature, 0.8% agarose gel 0.5x TBE 4 C; SPR: 10 mM Hepes pH 7.9, 150 mM NaCl, 1 mM DTT, further additive truncated in material, KDM2A 0-3 uM; conditions: protein: recombinant; tags: His (pET30b); label: 32P 5' end; blunt
T1 sequence: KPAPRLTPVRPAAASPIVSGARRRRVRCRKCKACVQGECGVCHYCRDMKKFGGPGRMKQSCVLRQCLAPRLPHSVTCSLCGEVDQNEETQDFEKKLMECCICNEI

## 75 bp probe, 6 CpG
[1]
  Kd: 560 nM

## 75 bp probe, 1 CpG
[1]
  Kd: 640 nM

B1: short probe, CpGs methylated (dsDNA)
DNA 1: GTAGGCGGTGCTACACGGTTCCTGAAGTG
DNA 2: CACTTCAGGAACCGTGTAGCACCGCCTAC
modifications: CpG methylated (5mC); strands and method not stated
[2]
  binding result: no binding

B2: short probe with two CpGs (dsDNA)
DNA 1: GTAGGCGGTGCTACACGGTTCCTGAAGTG
DNA 2: CACTTCAGGAACCGTGTAGCACCGCCTAC
[2]
  binding result: binds
